Assay [1] addresses T1, Cyno plasma sIL-6R (cynomolgus monkey, UniProt A0A2K5WN54 60-396).
T1 construct: also called cynomolgus sIL-6R
T1 sequence: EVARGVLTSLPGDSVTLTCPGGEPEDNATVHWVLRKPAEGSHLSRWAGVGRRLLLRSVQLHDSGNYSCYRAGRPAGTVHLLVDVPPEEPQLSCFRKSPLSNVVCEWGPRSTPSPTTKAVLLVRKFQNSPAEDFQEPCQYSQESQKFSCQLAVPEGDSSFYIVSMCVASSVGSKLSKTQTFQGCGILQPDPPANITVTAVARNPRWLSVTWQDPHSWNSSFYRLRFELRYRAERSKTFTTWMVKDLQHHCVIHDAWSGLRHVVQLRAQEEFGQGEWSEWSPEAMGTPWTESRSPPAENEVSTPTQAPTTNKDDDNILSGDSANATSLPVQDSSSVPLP
Kind of assay: plasma potency ELISA, human against cyno plasma. (ELISA stands for enzyme-linked immunosorbent assay.)

The target in assay [2] is T2, Human plasma sIL-6R (human, UniProt P08887 20-355, limits assumed).
T2 construct: also called plasma-derived human IL-6R
T2 sequence (looked up): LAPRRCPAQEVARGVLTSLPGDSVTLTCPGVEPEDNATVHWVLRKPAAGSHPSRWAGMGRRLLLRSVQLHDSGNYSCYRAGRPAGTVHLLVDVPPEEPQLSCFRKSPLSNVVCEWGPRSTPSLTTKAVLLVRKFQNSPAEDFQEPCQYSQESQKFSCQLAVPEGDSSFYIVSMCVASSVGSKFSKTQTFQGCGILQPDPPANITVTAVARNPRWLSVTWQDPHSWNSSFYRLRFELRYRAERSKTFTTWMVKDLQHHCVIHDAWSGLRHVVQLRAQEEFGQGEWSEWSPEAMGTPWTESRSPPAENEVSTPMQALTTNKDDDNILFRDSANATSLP
In words: plasma potency assay, human plasma, 2.4 nM IL6; blocked ligand IL-6.
Experimental: (§1) All 5 affinity matured Nanobodies and the sequence optimized Nanobody were also tested in a plasma potency assay. […] TMB was used as substrate.

The target of assay [3] is T2, Human plasma sIL-6R. In words: plasma potency ELISA, human plasma, high IL-6 (EC95).
Assay [4] addresses T2, Human plasma sIL-6R. Kind of assay: plasma potency assay, human plasma, 42 nM IL6; blocked ligand IL-6.
Experimental: as §1
The target in assay [5] is T2, Human plasma sIL-6R. Kind of assay: plasma potency ELISA, human plasma, normal IL-6 (EC50).
In assay [6] the target is T2, Human plasma sIL-6R. Kind of assay: plasma potency ELISA, human plasma; human plasma.
Assay [7] has as its target T2, Human plasma sIL-6R. Kind of assay: plasma potency ELISA, human plasma + human IL-6 50 ng/mL; sIL-6R captured on BN-12, bound IL-6 detected; blocked ligand IL-6.
The target in assay [8] is T1, Cyno plasma sIL-6R. Kind of assay: plasma potency ELISA, cyno plasma + human IL-6 50 ng/mL; sIL-6R captured on BN-12, bound IL-6 detected; blocked ligand IL-6.
The target of assay [9] is T2, Human plasma sIL-6R. In words: plasma potency ELISA, human plasma.
Assay [10] concerns the target T1, Cyno plasma sIL-6R. In words: plasma potency ELISA, cyno plasma.
In assay [11] the target is T3, Human membrane IL-6R on cells (human, UniProt P08887 20-468).
T3 sequence (looked up): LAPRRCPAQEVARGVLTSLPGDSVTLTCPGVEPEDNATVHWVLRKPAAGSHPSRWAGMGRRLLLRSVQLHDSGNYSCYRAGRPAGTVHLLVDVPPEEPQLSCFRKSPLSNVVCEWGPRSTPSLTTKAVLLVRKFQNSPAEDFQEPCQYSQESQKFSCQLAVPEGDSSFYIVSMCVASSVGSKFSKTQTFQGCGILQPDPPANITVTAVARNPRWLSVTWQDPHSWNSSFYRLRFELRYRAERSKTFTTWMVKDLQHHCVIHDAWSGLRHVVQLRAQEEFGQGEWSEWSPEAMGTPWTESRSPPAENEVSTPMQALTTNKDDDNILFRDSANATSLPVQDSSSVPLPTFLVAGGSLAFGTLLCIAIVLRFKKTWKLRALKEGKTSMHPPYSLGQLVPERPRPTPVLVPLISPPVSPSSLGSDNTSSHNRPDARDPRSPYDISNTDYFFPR
In words: cell-based or functional assay.

Assay [12] deals with T3, Human membrane IL-6R on cells. Kind of assay: cell-based or functional assay. This is another data set of the same source.
The target is the same in assay [13]. Kind of assay: cell-based or functional assay. This is another data set of the same source.

The values that follow come from patent US20120077731A1 (Ablynx, published 2012).

The term IC50 denotes the point on the concentration scale where inhibition reaches its midpoint. Read a low IC50 as greater potency in that assay.

B1: Reference IgG (antibody, V domains shown)
VH: QVQLQESGPGLVRPSQTLSLTCTVSGYSITSDHAWSWVRQPPGRGLEWIGYISYSGITTYNPSLKSRVTMLRDTSKNQFSLRLSSVTAADTAVYYCARSLARTTAMDYWGQGSLVTVSS
VL: DIQMTQSPSSLSASVGDRVTITCRASQDISSYLNWYQQKPGKAPKLLIYYTSRLHSGVPSRFSGSGSGTDFTFTISSLQPEDIATYYCQQGNTLPYTFGQGTKVEIKR
notes: Full-length human IgG1 produced in CHO cells
As to B1, in the assay with Cyno plasma sIL-6R [1], the “Ratio (human/cyno) of IC50” value came to 1.55. In addition, the IC50 was found to be 0.2 nM with Human plasma sIL-6R [2]; 1.69 nM with Human plasma sIL-6R [3]; 1.7 nM with Human plasma sIL-6R [4]; 0.258 nM in the assay with Human plasma sIL-6R [5]; 0.258 nM with Human plasma sIL-6R [6]; 0.166 nM with Cyno plasma sIL-6R [10]. For the same molecule, the “IC50 (read off the curve)” value in the assay with Human plasma sIL-6R [7] is about 0.04 nM; in the assay with Cyno plasma sIL-6R [8], about 0.01 nM. Also, the “Ratio (high/low) of IC50” value in the assay with Human plasma sIL-6R [9] worked out at 6.54. For the same molecule, in [11], the “IC50 (nM), TF-1 proliferation at 5000 IU/mL IL-6” value amounted to 144 nM. Also, the “IC50 (nM) + HSA, XG-1 proliferation assay” value in assay [12] was determined as 0.47 nM. Also, the “IC50 (nM), TF-1 proliferation at 100 IU/mL IL-6” value in assay [13] was found to be 0.921 nM.
